In patent US20140023585A1, “177 LUTETIUM-LABELED BOMBESIN ANALOGS FOR RADIOTHERAPY” (UNIVERSITATSSPITAL BASEL, priority 2010, published 2014):

Tested on: PC-3 tumors
Experiment: in vivo
Settings: i.v.
Procedure: Biodistribution was investigated in NMRI nude mice bearing subcutaneous PC-3 tumors in the right hind limb at different time-points. Body weight of the male mice was approx. 30 g, 3 animals were investigated per time-point. After injecting an intravenous dose into the tail vein, mice were sacrificed at indicated time points and dissected organs were analyzed by radioactive counting. An administration dose of 100 μL was applied per animal with a mean activity of 86 kBq.
At indicated time points urine and feces were quantitatively collected. At the same time points, animals were sacrificed and exsanguinations under isoflurane anesthesia and the following organs and tissues were removed for measurement of [^177Lu] using the gamma-counter: spleen, liver, gallbladder, kidneys, lung, femur, heart, brain, fat, thyroid, muscle, skin, blood, tail, stomach (without content), prostate, intestine (with content), pancreas, adrenals, and the remaining body (designated as carcass).
Whole organs and tissues or aliquots were weighted and measured in a gamma-counter for radioactivity. In order to get the amount of total radioactivity administered in each animal (=100%) 3 aliquots (100 μL each) of the injected solution were always measured in parallel. The results of the biodistribution and excretion are reported as percent of injected dose per gram of tissue (% ID/g) and percent of injected dose per organ (% ID), respectively. All data are given as mean value±standard deviation, which were calculated by using all animals per time and sample.

Q: For `CC(C)C[C@H](NC(=O)C[C@H](O)[C@H](CC(C)C)NC(=O)[C@H](Cc1c[nH]cn1)NC(=O)CNC(=O)[C@@H](NC(=O)[C@H](C)NC(=O)[C@H](Cc1c[nH]c2ccccc12)NC(=O)[C@H](CCC(N)=O)NC(=O)[C@@H](Cc1ccccc1)NC(=O)CN1CCC(NC(=O)CN2CCN(CC(=O)O)CCN(CC(=O)O)CCN(CC(=O)O)CC2)CC1)C(C)C)C(N)=O` [compound 2, [^177Lu]-DOTA-4-amino-1-carboxymethylpiperidine-D-Phe-Gln-Trp-Ala-Val-Gly-His-Sta-Leu-NH2, metal not drawn], which “% ID Gallbladder” value (1.0 h p.a.) is on record?
A: Its value is 0.000 % ID.

Q: What about the “% ID/g Kidney” value (1.0 h p.a.) of the same compound?
A: Its value is 1.72 (±0.45) % ID/g.

Q: And the “% ID/g Tumor” value (1.0 h p.a.)?
A: The value was 5.60 (±1.66) % ID/g.

Q: And the “% ID Gallbladder” value (4.0 h p.a.)?
A: The value was 0.000 % ID.

Q: And the “% ID/g Kidney” value (24.0 h p.a.)?
A: Its value is 0.57 (±0.21) % ID/g.

Q: And the “% ID/g Liver” value (24.0 h p.a.)?
A: The value was 0.05 (±0.01) % ID/g.

Q: And the “% ID/g Tumor” value (24.0 h p.a.)?
A: Its value is 6.06 (±1.53) % ID/g.
